The values below come from article doi:10.1101/2024.12.17.628836.

“And” between values parts separate entries of the source, which are not always exact repeats. Identical values can stand only once.

The target in the test is standard human 20S proteasome, immunopurified from HEK293-EBNA cells (human). Briefly: mass photometry.

As for “recombinant human PA200 (proteasome activator 200) (from UniProt Q14997 1-1843) (natural protein)”, the percent of total 20S bound at a PA200:20S molar ratio of 8 is greater than 60%; the stoichiometry N (PA200 per 20S) was 1 and 2.
